Experimental data as given in patent US20180155451A1 (published 2018).

T1: FcγRIIa R (extracellular domain with a His tag at the C terminus) (human, UniProt P12318 34-217)
T1 construct: extracellular domain; expressed in FreeStyle293 cells; also called FcgRIIa R; FcγRIIa type R; not shown: His tag at the C terminus
T1 sequence (looked up): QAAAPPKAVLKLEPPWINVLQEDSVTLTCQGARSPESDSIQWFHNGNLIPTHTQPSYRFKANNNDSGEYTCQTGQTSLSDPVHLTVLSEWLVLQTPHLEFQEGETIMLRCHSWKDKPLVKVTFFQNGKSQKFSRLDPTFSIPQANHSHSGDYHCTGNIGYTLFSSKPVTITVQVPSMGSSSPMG

B1: GpH7-A5/GpH7-B3 variant S337_03V/GpL16-k0 (antibody, human IgG1, kappa)
heavy 1: not shown
heavy 2: not shown
light: DIVMTQSPLSLPVTPGEPASISCQASESLVHSNRNTYLHWYLQKPGQSPQLLIYKVSNRFSGVPDRFSGSGSGTDFTLKISRVEAEDVGVYYCSQNTHVPPTFGQGTKVEIERTVAAPSVFIFPPSDEQLKSGTASVVCLLNNFYPREAKVQWKVDNALQSGNSQESVTEQDSKDSTYSLSSTLTLSKADYEKHKVYACEVTHQGLSSPVTKSFNRGEC
notes: heterodimerized; mutation in one H chain; also called He Ab
B2: GpH7-B3 variant E269_20W/GpL16-k0 (antibody, human IgG1, kappa)
heavy: not shown
light: B1 light
notes: homodimerized; also called Ho Ab E269_20W
B3: GpH7-B3 variant A327_13S/GpL16-k0 (antibody, human IgG1, kappa)
heavy: not shown
light: B1 light
notes: homodimerized; also called Ho Ab A327_13S
B4: GpH7-B3 variant A327_09D/GpL16-k0 (antibody, human IgG1, kappa)
heavy: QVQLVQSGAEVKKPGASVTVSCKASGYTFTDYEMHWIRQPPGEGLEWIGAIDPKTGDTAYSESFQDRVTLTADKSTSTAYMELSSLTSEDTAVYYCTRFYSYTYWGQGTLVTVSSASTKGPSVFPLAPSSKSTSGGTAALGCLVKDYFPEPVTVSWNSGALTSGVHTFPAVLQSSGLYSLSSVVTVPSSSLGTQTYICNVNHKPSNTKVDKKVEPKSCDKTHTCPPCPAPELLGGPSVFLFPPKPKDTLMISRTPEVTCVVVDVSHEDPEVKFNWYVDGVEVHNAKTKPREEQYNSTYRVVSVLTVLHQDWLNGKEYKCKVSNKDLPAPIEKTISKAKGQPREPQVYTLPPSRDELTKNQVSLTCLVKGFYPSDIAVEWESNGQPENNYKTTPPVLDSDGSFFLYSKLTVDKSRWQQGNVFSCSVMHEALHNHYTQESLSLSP
light: B1 light
notes: homodimerized; also called Ho Ab A327_09D
B5: GpH7-A5/GpH7-B3 variant S337_15Y/GpL16-k0 (antibody, human IgG1, kappa)
heavy 1: not shown
heavy 2: not shown
light: B1 light
notes: as for B1
B6: GpH7-A5/GpH7-B3 variant S337_10E/GpL16-k0 (antibody, human IgG1, kappa)
heavy 1: not shown
heavy 2: not shown
light: B1 light
notes: as for B1
B7: GpH7-B3 variant E333_06M/GpL16-k0 (antibody, human IgG1, kappa)
heavy: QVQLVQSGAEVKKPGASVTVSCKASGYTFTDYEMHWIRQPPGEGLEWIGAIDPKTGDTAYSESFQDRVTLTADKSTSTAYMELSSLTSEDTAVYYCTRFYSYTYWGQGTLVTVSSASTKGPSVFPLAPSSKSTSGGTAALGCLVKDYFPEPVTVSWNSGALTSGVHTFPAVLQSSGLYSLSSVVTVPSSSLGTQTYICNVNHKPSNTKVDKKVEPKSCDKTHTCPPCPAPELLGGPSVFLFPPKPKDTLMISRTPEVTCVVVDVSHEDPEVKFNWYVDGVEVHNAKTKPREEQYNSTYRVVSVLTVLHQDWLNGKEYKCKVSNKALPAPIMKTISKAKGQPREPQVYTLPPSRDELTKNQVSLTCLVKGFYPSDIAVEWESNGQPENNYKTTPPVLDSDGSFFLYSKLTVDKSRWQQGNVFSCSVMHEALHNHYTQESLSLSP
light: B1 light
notes: homodimerized; also called Ho Ab E333_06M
B8: GpH7-B3 variant A330_05P/GpL16-k0 (antibody, human IgG1, kappa)
heavy: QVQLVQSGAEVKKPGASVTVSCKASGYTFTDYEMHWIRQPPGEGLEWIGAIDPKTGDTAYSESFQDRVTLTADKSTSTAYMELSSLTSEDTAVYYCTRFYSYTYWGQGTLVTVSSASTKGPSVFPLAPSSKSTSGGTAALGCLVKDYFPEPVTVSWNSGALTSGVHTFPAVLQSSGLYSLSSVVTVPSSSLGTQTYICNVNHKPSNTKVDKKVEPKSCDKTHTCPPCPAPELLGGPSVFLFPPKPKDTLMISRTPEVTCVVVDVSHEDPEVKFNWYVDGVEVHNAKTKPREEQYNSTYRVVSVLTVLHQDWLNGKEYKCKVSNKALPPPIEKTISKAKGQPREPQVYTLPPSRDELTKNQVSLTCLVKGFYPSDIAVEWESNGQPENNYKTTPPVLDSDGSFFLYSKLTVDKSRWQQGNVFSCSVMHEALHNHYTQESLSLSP
light: B1 light
notes: homodimerized; also called Ho Ab A330_05P
B9: GpH7-B3 variant E269_19Q/GpL16-k0 (antibody, human IgG1, kappa)
heavy: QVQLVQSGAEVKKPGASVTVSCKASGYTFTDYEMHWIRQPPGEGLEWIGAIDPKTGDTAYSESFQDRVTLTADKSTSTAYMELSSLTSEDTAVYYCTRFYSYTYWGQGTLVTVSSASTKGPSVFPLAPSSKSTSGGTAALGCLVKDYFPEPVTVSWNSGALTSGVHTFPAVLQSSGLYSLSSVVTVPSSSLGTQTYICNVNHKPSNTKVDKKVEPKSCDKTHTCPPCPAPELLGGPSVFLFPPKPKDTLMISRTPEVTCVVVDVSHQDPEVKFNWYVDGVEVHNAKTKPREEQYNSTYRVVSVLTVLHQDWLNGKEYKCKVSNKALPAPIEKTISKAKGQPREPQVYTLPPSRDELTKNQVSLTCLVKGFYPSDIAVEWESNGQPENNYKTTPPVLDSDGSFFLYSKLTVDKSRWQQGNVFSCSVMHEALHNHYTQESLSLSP
light: B1 light
notes: homodimerized; also called Ho Ab E269_19Q
B10: GpH7-B3 variant A330_08L/GpL16-k0 (antibody, human IgG1, kappa)
heavy: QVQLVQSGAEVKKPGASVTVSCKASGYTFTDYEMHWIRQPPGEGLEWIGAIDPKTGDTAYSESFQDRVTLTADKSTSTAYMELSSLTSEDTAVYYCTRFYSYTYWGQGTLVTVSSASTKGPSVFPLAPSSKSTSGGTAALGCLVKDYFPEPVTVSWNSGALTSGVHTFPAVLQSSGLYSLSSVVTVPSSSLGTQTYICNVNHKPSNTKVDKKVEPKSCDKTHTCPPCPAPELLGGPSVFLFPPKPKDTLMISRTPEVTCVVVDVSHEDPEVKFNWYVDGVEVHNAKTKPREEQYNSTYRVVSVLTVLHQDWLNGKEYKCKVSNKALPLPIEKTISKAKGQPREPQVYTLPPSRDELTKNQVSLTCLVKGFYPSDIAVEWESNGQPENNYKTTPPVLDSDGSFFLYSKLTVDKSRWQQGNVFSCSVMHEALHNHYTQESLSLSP
light: B1 light
notes: homodimerized; also called Ho Ab A330_08L; GpH7-B3-20-08L/GpL16-k0
B11: GpH7-B3 variant E333_05P/GpL16-k0 (antibody, human IgG1, kappa)
heavy: not shown
light: B1 light
notes: homodimerized; also called Ho Ab E333_05P
B12: GpH7-B3 variant A330_09D/GpL16-k0 (antibody, human IgG1, kappa)
heavy: not shown
light: B1 light
notes: homodimerized; also called Ho Ab A330_09D
B13: GpH7-B3 variant E333_08L/GpL16-k0 (antibody, human IgG1, kappa)
heavy: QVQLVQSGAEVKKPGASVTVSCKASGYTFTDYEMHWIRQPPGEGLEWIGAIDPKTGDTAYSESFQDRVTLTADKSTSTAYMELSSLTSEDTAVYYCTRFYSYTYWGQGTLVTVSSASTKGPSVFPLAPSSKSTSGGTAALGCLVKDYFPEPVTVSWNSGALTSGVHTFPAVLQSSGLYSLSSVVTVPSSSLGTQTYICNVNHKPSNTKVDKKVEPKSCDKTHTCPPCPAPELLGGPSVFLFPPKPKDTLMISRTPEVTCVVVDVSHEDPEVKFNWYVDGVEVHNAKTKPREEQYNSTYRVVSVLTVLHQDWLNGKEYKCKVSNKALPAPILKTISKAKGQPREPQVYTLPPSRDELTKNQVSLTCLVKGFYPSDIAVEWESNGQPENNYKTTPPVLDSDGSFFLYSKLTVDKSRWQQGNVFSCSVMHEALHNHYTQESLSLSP
light: B1 light
notes: homodimerized; also called Ho Ab E333_08L
B14: GpH7-A5/GpH7-B3 variant S337_09D/GpL16-k0 (antibody, human IgG1, kappa)
heavy 1: not shown
heavy 2: not shown
light: B1 light
notes: as for B1
B15: GpH7-A5/GpH7-B3 variant S298_08L/GpL16-k0 (antibody, human IgG1, kappa)
heavy 1: not shown
heavy 2: not shown
light: B1 light
notes: as for B1
B16: GpH7-A5/GpH7-B3 variant S324_06M/GpL16-k0 (antibody, human IgG1, kappa)
heavy 1: not shown
heavy 2: not shown
light: B1 light
notes: as for B1
B17: GpH7-B3 variant E269_14T/GpL16-k0 (antibody, human IgG1, kappa)
heavy: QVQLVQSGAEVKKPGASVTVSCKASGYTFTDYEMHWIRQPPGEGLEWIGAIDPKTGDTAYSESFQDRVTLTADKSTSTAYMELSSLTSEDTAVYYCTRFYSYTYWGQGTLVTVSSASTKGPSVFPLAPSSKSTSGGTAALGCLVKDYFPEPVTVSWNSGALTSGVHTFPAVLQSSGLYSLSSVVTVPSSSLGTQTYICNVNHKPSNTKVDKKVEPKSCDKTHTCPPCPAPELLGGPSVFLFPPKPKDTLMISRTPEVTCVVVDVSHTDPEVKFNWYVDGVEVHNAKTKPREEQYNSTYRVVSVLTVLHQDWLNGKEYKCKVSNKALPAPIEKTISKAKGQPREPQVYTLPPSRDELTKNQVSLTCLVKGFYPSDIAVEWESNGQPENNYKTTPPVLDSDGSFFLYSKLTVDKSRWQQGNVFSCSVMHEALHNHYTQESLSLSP
light: B1 light
notes: homodimerized; also called Ho Ab E269_14T
B18: GpH7-B3 variant E269_02A/GpL16-k0 (antibody, human IgG1, kappa)
heavy: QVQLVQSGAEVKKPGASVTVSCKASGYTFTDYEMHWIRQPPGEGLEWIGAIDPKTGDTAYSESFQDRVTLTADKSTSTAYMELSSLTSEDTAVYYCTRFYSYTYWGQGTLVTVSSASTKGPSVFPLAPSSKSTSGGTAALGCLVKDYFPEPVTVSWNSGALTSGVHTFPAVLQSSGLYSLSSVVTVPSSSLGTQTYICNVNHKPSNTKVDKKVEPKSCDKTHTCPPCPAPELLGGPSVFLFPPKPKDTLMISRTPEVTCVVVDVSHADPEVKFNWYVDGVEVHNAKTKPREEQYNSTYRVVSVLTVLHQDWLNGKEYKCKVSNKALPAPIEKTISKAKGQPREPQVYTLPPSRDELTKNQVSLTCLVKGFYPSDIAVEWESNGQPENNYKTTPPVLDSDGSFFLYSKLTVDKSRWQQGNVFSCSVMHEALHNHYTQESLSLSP
light: B1 light
notes: homodimerized; also called Ho Ab E269_02A
B19: GpH7-A5/GpH7-B3 variant T335_13S/GpL16-k0 (antibody, human IgG1, kappa)
heavy 1: not shown
heavy 2: not shown
light: B1 light
notes: as for B1
B20: GpH7-B3 variant A327_03V/GpL16-k0 (antibody, human IgG1, kappa)
heavy: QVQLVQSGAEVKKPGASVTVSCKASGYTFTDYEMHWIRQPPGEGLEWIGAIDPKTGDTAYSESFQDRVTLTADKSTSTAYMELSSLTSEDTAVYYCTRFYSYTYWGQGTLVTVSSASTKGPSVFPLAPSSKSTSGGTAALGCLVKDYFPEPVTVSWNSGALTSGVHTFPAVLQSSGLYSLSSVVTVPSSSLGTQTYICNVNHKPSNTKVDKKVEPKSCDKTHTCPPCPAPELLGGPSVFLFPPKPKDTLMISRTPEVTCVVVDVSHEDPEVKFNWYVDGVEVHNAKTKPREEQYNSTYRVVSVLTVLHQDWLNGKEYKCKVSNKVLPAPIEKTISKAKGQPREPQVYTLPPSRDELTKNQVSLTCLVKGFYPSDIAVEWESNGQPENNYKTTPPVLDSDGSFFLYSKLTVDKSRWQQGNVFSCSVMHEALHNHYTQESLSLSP
light: B1 light
notes: homodimerized; also called Ho Ab A327_03V
B21: GpH7-B3 variant A327_07I/GpL16-k0 (antibody, human IgG1, kappa)
heavy: not shown
light: B1 light
notes: homodimerized; also called Ho Ab A327_07I
B22: GpH7-B3 variant A330_14T/GpL16-k0 (antibody, human IgG1, kappa)
heavy: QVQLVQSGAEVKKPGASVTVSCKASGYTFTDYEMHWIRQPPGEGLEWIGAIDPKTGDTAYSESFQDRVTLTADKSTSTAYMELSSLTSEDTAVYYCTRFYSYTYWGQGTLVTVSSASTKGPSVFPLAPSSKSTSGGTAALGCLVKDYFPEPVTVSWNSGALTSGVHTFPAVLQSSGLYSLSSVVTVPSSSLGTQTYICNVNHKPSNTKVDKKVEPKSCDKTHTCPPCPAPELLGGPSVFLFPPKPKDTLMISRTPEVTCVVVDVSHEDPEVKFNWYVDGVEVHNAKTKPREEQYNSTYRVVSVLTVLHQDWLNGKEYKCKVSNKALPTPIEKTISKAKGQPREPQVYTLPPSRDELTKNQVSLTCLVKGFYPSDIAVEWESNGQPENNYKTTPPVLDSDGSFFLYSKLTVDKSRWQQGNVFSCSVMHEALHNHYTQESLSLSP
light: B1 light
notes: homodimerized; also called Ho Ab A330_14T
B23: GpH7-A5/GpH7-B3 variant S267_06M/GpL16-k0 (antibody, human IgG1, kappa)
heavy 1: not shown
heavy 2: not shown
light: B1 light
notes: as for B1
B24: GpH7-A5/GpH7-B3 variant T335_10E/GpL16-k0 (antibody, human IgG1, kappa)
heavy 1: not shown
heavy 2: not shown
light: B1 light
notes: as for B1
B25: GpH7-A5/GpH7-B3 variant S337_16H/GpL16-k0 (antibody, human IgG1, kappa)
heavy 1: not shown
heavy 2: not shown
light: B1 light
notes: as for B1
B26: GpH7-A5/GpH7-B3 variant S267_19Q/GpL16-k0 (antibody, human IgG1, kappa)
heavy 1: not shown
heavy 2: not shown
light: B1 light
notes: as for B1
B27: GpH7-A5/GpH7-B3 variant S267_03V/GpL16-k0 (antibody, human IgG1, kappa)
heavy 1: not shown
heavy 2: not shown
light: B1 light
notes: as for B1
B28: GpH7-B3 variant E269_15Y/GpL16-k0 (antibody, human IgG1, kappa)
heavy: not shown
light: B1 light
notes: homodimerized; also called Ho Ab E269_15Y
B29: GpH7-A5/GpH7-B3 variant T335_05P/GpL16-k0 (antibody, human IgG1, kappa)
heavy 1: not shown
heavy 2: not shown
light: B1 light
notes: as for B1

Key:
[1] = target: T1, FcγRIIa R (extracellular domain with a …); experiment: SPR Biacore, relative binding
FcγRIa = target: T2, FcγRIa (human, UniProt P12314 16-292); experiment: SPR; vs GpH7-B3/GpL16-k0=100
T2 construct: extracellular domain; also called FcgRI; CD64
T2 sequence (P12314 16-292): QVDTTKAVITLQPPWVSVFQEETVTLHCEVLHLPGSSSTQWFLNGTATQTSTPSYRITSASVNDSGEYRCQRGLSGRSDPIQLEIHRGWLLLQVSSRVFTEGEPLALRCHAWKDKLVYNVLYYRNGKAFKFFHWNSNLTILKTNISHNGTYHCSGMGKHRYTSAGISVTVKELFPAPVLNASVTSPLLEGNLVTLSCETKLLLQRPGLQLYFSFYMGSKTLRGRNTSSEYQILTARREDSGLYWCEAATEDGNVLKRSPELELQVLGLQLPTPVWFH

| Binder | He/Con_2aR [1] | Ho/Con_1a (FcγRIa) |
| --- | --- | --- |
| B1 | 106 % of GpH7-A5/GpH7-B3/GpL16-k0 (=100) | – |
| B2 | – | 98.9 % of control |
| B3 | – | 86.1 % of control |
| B4 | – | 102 % of control |
| B5 | 105 % of GpH7-A5/GpH7-B3/GpL16-k0 (=100) | – |
| B6 | 112 % of GpH7-A5/GpH7-B3/GpL16-k0 (=100) | – |
| B7 | – | 99.5 % of control |
| B8 | – | 84.4 % of control |
| B9 | – | 99.6 % of control |
| B10 | – | 106 % of control |
| B11 | – | 99.2 % of control |
| B12 | – | 108 % of control |
| B13 | – | 99 % of control |
| B14 | 115 % of GpH7-A5/GpH7-B3/GpL16-k0 (=100) | – |
| B15 | 105 % of GpH7-A5/GpH7-B3/GpL16-k0 (=100) | – |
| B16 | 123 % of GpH7-A5/GpH7-B3/GpL16-k0 (=100) | – |
| B17 | – | 96.2 % of control |
| B18 | – | 96.2 % of control |
| B19 | 110 % of GpH7-A5/GpH7-B3/GpL16-k0 (=100) | – |
| B20 | – | 94.4 % of control |
| B21 | – | 95.5 % of control |
| B22 | – | 105 % of control |
| B23 | 122 % of GpH7-A5/GpH7-B3/GpL16-k0 (=100) | – |
| B24 | 111 % of GpH7-A5/GpH7-B3/GpL16-k0 (=100) | – |
| B25 | 109 % of GpH7-A5/GpH7-B3/GpL16-k0 (=100) | – |
| B26 | 135 % of GpH7-A5/GpH7-B3/GpL16-k0 (=100) | – |
| B27 | 116 % of GpH7-A5/GpH7-B3/GpL16-k0 (=100) | – |
| B28 | – | 100 % of control |
| B29 | 104 % of GpH7-A5/GpH7-B3/GpL16-k0 (=100) | – |
